This is an account of results in publication PMC8588036, “Molecular Cloning and Identification of NADPH Cytochrome P450 Reductase from Panax ginseng” (Molecules, 2021).

Data set [1] concerns NC(=O)C1=CN([C@@H]2O[C@H](COP(=O)(O)OP(=O)(O)OC[C@H]3O[C@@H](n4cnc5c(N)ncnc54)[C@H](OP(=O)(O)O)[C@@H]3O)[C@@H](O)[C@H]2O)C=CC1. Nature of the data set: purified protein. The note with it: 100 μmol/L cytochrome c, NADPH 0-400 μmol/L, 50 mmol/L Tris HCl pH 7.4, 0.1 mmol/L EDTA, 25 °C.
Data set [2] deals with T1, NC(=O)C1=CN([C@@H]2O[C@H](COP(=O)(O)OP(=O)(O)OC[C@H]3O[C@@H](n4cnc5c(N)ncnc54)[C@H](OP(=O)(O)O)[C@@H]3O)[C@@H](O)[C@H]2O)C=CC1.
T1 construct: pET28a, His-tag, E. coli BL21(DE3), Ni-NTA
Nature of the data set: cytochrome c reduction, A550. It counts as biochemical, Panax ginseng. The note with it: 100 μmol/L cytochrome c, NADPH 0-400 μmol/L, 50 mmol/L Tris HCl pH 7.4, 0.1 mmol/L EDTA, 25 °C.

As a reminder, the Km is the substrate concentration at which the rate is half of its maximum. What is called kcat is the maximal rate divided by the concentration of active sites. For orientation: kcat/Km means the turnover number divided by the Michaelis constant.

Chain of PgCPR1 (Panax ginseng) (chain, as listed by the source): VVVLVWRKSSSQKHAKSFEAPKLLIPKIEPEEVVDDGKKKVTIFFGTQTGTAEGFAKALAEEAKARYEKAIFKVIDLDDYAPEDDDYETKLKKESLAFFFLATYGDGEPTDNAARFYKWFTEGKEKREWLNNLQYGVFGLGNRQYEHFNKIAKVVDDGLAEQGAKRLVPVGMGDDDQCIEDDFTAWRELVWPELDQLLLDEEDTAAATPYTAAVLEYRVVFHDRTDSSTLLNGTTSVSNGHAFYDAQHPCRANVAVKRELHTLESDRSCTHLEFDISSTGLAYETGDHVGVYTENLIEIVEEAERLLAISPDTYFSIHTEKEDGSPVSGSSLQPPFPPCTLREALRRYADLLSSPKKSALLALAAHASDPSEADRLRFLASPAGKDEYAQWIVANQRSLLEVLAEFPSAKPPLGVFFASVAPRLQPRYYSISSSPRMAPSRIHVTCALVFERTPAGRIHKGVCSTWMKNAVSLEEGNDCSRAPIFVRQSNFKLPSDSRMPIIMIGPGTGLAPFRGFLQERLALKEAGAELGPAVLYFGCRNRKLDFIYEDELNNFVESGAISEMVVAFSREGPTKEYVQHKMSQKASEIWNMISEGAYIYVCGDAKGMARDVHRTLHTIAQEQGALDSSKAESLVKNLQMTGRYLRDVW
Chain of PgCPR2 (Panax ginseng) (chain, as listed by the source): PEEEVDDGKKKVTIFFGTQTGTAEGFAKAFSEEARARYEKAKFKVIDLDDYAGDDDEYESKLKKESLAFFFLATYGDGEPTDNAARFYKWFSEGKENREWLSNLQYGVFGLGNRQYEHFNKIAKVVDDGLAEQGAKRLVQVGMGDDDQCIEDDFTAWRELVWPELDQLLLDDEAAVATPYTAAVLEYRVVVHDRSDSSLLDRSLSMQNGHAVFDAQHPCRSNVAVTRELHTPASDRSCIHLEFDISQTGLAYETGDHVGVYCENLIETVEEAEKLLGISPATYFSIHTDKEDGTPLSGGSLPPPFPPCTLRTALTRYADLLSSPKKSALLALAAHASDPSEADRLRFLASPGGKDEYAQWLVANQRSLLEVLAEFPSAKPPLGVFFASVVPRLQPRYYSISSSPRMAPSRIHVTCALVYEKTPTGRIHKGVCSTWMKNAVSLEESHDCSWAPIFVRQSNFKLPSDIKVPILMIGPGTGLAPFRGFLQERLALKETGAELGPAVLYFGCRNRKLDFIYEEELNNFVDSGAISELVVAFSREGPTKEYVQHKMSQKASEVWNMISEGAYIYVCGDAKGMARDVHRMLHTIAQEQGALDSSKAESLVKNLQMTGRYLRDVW

Take AtCPR1 (Arabidopsis thaliana): in data set [1], the Km is 84.61 ± 8.548 µM, the turnover number (kcat) amounted to 2.74 s⁻¹ and the kcat/Km was found to be 32400 M⁻¹ s⁻¹.

Take PgCPR1 (Panax ginseng): in data set [2], the Km stood at 62.9 ± 5.807 µM, the kcat turned out to be 3.32 ± 0.0968 s⁻¹ and the kcat/Km was 52800 M⁻¹ s⁻¹.

Regarding PgCPR2 (Panax ginseng), in data set [2], the Km turned out to be 85.27 ± 6.07 µM, the turnover number (kcat) worked out at 3.38 ± 0.087 s⁻¹ and the kcat/Km is 39600 M⁻¹ s⁻¹.
